Experimental data taken from patent publication US6642040B2, “Human cGMP-stimulated cyclic nucleotide phosphodiesterase” (The Board of Regents of the University of Washington, priority 1991, dated 2003).

System: cGS-PDE activity
Experiment: cGS-PDE activity of membrane and supernatant fractions of transfected COS-7 cells
Format: biochemical, bovine
Description: Transient expression of the CGS-PDE cDNA in COS-7 cells was accomplished as in Example I. A 4.2 kb fragment of p3CGS-5 was isolated using HindIII and NotI and was inserted into plasmid pCDM8, which had been digested with the same enzymes. The character of products produced in COS-7 cells transformed with the p3CGS-5/pCDM8 construct is discussed in Example V, infra.
For transient expression in COS-7 cells, a 3.8 kb fragment of pBBCGSPDE-7 was isolated using HindIII and NotI and inserted into plasmid pCDM8 which had been cut with HindIII and NotI restriction endonucleases. The recombinant pBBCGSPDE-7/CDM8 construct was used to transiently transfect COS-7 cells. The properties of the pBBCGSPDE-7/CDM8 construct and the p3CGS-5/CDM8 construct prepared in Example IV products were subsequently compared. Membrane and supernatant fractions were prepared from extracts of transfected COS-7 cells and assayed for cGS-PDE activity. […] However, a 10-fold greater percentage of total cGS-PDE activity was detected in membranes from COS-7 cell extracts transfected with the pBBCGSPDE-7/CDM8 construct than in membranes prepared from p3CGS-5/CDM8-transfected COS-7 cells.

B1: pBBCGSPDE-7/CDM8: expression product of bovine brain cGS-PDE cDNA (SEQ ID NO: 43) (protein)
chain: MGQACGHSILCRSQQYPAARPAEPRGQQVFLKPDEPPPPPQPCADSLQDALLSLGSVIDVAGLQQAVKEALSAVLPKVETVYTYLLDGESRLVCEEPPHELPQEGKVREAVISRKRLGCNGLGPSDLPGKPLARLVAPLAPDTQVLVIPLVDKEAGAVAAVILVHCGQLSDNEEWSLQAVEKHTLVALKRVQALQQRESSVAPEATQNPPEEAAGDQKGGVAYTDQDRKILQLCGELYDLDASSLQLKVLQYLQQETQASRCCLLLVSEDNLQLSCKVIGDKVLEEEISFPLTTGRLGQVVEDKKSIQLKDLTSEDMQQLQSMLGCEVQAMLCVPVISRATDQVVALACAFNKLGGDLFTDQDEHVIQHCFHYTSTVLTSTLAFQKEQKLKCECQALLQVAKNLFTHLDDVSVLLQEIITEARNLSNAEICSVFLLDQNELVAKVFDGGVVEDESYEIRIPADQGIAGHVATTGQILNIPDAYAHPLFYRGVDDSTGFRTRNILCFPIKNENQEVIGVAELVNKINGPWFSKFDEDLATAFSIYCGISIAHSLLYKKVNEAQYRSHLANEMMMYHMKVSDDEYTKLLHDGIQPVAAIDSNFASFTYTPRSLPEDDTSMAILSMLQDMNFINNYKIDCPTLARFCLMVKKGYRDPPYHNWMHAFSVSHFCYLLYKNLELTNYLEDMEIFALFISCMCHDLDHRGTNNSFQVASKSVLAALYSSEGSVMERHHFAQAIAILNTHGCNIFDHFSRKDYQRMLDLMRDIILATDLAHHLRIFKDLQKMAEVGYDRTNKQHHSLLLCLLMTSCDLSDQTKGWKTTRKIAELIYKEFFSQGDLEKAMGNRPMEMMDREKAYIPELQISFMEHIAMPIYKLLQDLFPKAAELYERVASNREHWTKVSHKFTIRGLPSNNSLDFLDEEYEVPDLDGARAPINGCCSLDAE
- percentage of total cGS-PDE activity detected in membranes, relative to p3CGS-5/CDM8-transfected cells (membranes from COS-7 cell extracts): 10 fold
- cGS-PDE activity in COS-7 cell extracts (most of the activity in supernatant fractions): produced cGS-PDE activities
